Laboratory results from US20110301332A1 (CEPHALON AUSTRALIA VIC, published 2011).
No end group written: not given here.

T1: biotinylated human PAMP (biotinylated to an added N-terminal cysteine) (human, not fully specified; biotin on the added N-terminal cysteine; C-terminal amide)
T1 construct: also called biotin-PAMP; biotinylated human full-length PAMP
T1 peptide: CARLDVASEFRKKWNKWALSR

B1: human PAMP (12-20) (peptide)
peptide: KWNKWALSR
modifications: not fully specified (C-terminus); ends and bridges not checked
notes: also called N-terminally truncated human PAMP, residues 12-20
B2: human PAMP (8-20) (peptide)
peptide: EFRKKWNKWALSR
modifications: ends and bridges not checked
notes: also called N-terminally truncated human PAMP, residues 8-20
B3: monoclonal antibody EGX-P-E9 (antibody, V domains shown)
VH: EVQLQQSGAELVRSGASVKLSCTASGFNIKDYYIHWVKQGPEQGLEWVGYIDPENGETAYAPKFQGKATLTADTSSNTAYLQLISLTSEDTAVYYCNAPYFSLGRNYWGQGTTLTVSS
VL: NVLMTQTPLSLPVSLGDQASISCRSSQSIVHGNGDTYLEWYLQKPGQSPKLLIYKVSNRFSGVPDRFSGSGSGTDFTLKIRRVEAEDLGVYYCFQGSHVPLTFGAGTKLELK
notes: Mouse IgG purified from hybridoma medium with Protein G; also called anti-PAMP EGX-P-E9 IgG; antibody of hybridoma clone PTA-7958
B4: human PAMP (10-20) (peptide)
peptide: RKKWNKWALSR
modifications: ends and bridges not checked
notes: also called N-terminally truncated human PAMP, residues 10-20
B5: human PAMP (13-20) (peptide)
peptide: WNKWALSR
modifications: ends and bridges not checked
notes: also called N-terminally truncated human PAMP, residues 13-20; C-terminal-most 8 residues of PAMP
B6: native (non-biotinylated) human PAMP (peptide)
peptide: ARLDVASEFRKKWNKWALSR-NH2
notes: also called human full length PAMP; hum FL

Tests used:
[1] = molecular target: B3; assay: competitive ELISA: EGX-P-E9-coated wells, 10 nM biotinylated human full-length PAMP plus 1 µM (100x) unlabeled competitor peptide, streptavidin-peroxidase, OD
Method: (§1) The activity of the purified monoclonal antibody EGX-P-E9 was examined by ELISA (Enzyme Linked Immunosorbent Assay, FIG. 1). Wells of a 96-well microtiter plate were coated with 5 μg/ml anti-PAMP EGX-P-E9 IgG diluted in PBS for several hours. After washing wells with PBS, the coated wells were then incubated with a skim milk-PBS solution (Milk/PBS) to block non-specific antigen-binding. To determine the EC50, an estimate of the dissociation constant, various concentration (12 μM to 2 μM in Milk/PBS) of biothinylated human PAMP (biotinylated to an added N-terminal cysteine) was incubated in EGX-P-E9-coated wells. After washing wells with PBS+0.05% Tween 20 (PBST), the EGX-P-E9-biotin-PAMP complex was captured by the streptavidin-peroxidase conjugate and quantified by measuring the A450 using the peroxidase substrate TMB fluorescent reagent (Sigma Aldrich) and Benchmark microplate reader (BioRad).
The specificity of anti-PAMP EGX-P-E9 was also tested by ELISA with competitor PAMP peptides (FIG. 2). Antibody EGX-P-E9-coated wells were loaded with 10 nM biotinylated human full-length PAMP in Milk/PBS supplemented with one hundred fold excess (1 μM) of the following unlabeled competitor PAMP peptides: Rat PAMP, mouse PAMP, human full length PAMP (hum FL), and various N-terminally truncated human PAMPs (containing only residues 8-20, 10-20, 12-20 or 13-20). Quantification of the EGX-P-E9-biotin-PAMP complex was done as described above.

human PAMP (13-20) = molecular target: B5; assay: competition ELISA with truncated PAMP peptides
Method: as §1
The specificity of anti-PAMP EGX-P-E9 was also tested by ELISA with competitor PAMP peptides (FIG. 2). […] Quantification of the EGX-P-E9-biotin-PAMP complex was done as described above.

[2] = molecular target: T1, biotinylated human PAMP (biotinylated …); assay: ELISA, antibody-coated wells, titration of biotinylated human PAMP, streptavidin-peroxidase detection
Method: as §1

[3] = molecular target: B3; assay: competition ELISA, non-biotinylated PAMP against 6.2 nM biotinylated PAMP on EGX-P-E9-coated wells
Method: as §1
To confirm the affinity for PAMP, IC50 values were determined by competing the binding of the EGX-P-E9 antibody to the biotinylated PAMP with native (non-biotinylated) human PAMP. […] After washing the wells with PBST, the EGX-P-E9-biotin-PAMP complex was detected using the streptavidin-peroxidase conjugate and quantified by measuring the A450 using the peroxidase substrate TMB fluorescent reagent (Sigma Aldrich) and Benchmark microplate reader (BioRad) as above.

binding result [1]	other results	Binder
binds	–	B1
binds	–	B2
binds	–	ARLDTSSQFRKKWNKWALSR-NH2 [Rat PAMP]
–	binding result (human PAMP (13-20)): binds; EC50 [2]: 6.2 nM	B3
binds	–	B4
binds	–	B5
–	IC50 [3]: 4 nM	B6
binds	–	AGPDTPSQFRKKWNKWALSR-NH2 [mouse PAMP]
